Experimental data taken from patent US20200079833A1 (AstraZeneca / MedImmune, published 2020).
Starred links: 1 amine or outer side, 2 acyl side, 3 side chain; linkers in the order of their positions; H or OH if unused. Non-standard residues stand in square brackets, D forms with d. Groups on a side chain read outwards from the residue. Primed or numbered codes have the meaning given here. No end group written: not given here. *: point of attachment. γGlu = O=C(O)[C@H](CCC(=O)[*:2])N[*:1]; αMeF = C[C@](N)(Cc1ccccc1)C(=O)O; αMeK = C[C@](N)(CCCCN)C(=O)O; Lauroyl = CCCCCCCCCCCC(=O)*; αMeS = C[C@](N)(CO)C(=O)O; PEG2′ = not defined here; Aib = CC(C)(N)C(=O)O

T1: glucose-dependent insulinotropic peptide (gastric inhibitory polypeptide) receptor (GIPR), primary cAMP assay … (human, UniProt P48546 22-466)
T1 sequence (looked up): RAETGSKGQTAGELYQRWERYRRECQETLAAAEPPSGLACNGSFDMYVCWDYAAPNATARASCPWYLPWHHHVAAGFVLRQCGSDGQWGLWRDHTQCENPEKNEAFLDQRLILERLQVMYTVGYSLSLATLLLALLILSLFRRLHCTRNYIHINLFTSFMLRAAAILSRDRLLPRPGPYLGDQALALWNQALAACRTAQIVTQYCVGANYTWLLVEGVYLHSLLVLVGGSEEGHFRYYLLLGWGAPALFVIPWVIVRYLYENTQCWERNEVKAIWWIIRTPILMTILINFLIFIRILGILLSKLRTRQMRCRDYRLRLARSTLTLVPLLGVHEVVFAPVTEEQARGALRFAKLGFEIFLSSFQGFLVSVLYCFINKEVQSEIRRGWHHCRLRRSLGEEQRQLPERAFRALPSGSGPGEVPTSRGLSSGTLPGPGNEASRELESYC

T2: glucose-dependent insulinotropic peptide (gastric inhibitory polypeptide) receptor (human, UniProt P48546 22-466)
T2 sequence (looked up): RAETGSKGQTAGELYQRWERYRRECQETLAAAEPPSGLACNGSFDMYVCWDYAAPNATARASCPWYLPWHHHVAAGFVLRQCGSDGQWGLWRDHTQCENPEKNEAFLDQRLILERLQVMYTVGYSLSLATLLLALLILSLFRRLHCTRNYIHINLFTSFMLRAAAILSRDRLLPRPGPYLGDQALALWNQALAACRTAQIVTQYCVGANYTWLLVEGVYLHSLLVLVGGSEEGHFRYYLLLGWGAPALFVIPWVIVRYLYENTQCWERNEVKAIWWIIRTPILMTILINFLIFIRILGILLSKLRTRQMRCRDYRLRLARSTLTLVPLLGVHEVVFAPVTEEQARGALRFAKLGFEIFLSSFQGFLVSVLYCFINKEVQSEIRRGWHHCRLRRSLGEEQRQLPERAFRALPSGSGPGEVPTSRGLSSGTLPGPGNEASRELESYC


Assays:
Experiment in all cases: cell-based or functional assay
[1] = target: T1, glucose-dependent insulinotropic …
[2] = target: glucagon receptor (GCGR), primary cAMP assay cell line (human, UniProt P47871 26-477)
Chain of glucagon receptor (GCGR), primary cAMP assay cell line (P47871 26-477): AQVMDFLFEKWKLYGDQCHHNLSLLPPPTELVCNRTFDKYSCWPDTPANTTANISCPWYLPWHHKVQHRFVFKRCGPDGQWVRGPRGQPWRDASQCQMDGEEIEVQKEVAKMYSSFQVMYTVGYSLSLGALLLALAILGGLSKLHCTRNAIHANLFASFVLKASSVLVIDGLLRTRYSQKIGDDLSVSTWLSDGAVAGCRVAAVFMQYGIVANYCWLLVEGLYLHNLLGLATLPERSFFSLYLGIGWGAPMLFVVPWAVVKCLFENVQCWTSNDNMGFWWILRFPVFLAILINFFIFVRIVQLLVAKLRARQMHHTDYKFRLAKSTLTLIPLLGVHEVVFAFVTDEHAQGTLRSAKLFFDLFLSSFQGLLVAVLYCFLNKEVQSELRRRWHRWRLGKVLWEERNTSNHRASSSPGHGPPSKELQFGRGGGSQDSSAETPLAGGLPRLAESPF

[3] = target: GLP-1 receptor (GLP-1R), primary cAMP assay cell line (human, UniProt P43220 24-463)
[4] = target: T2, glucose-dependent insulinotropic …
[5] = target: glucagon receptor (human, UniProt P47871 26-477)
Chain of glucagon receptor (P47871 26-477): as above

[6] = target: GLP-1 receptor (human, UniProt P43220 24-463)

cAMP Primary assay EC50, n1 [1] [nM] | cAMP Primary assay EC50, n2 [1] [nM] | cAMP Primary assay EC50, n1 [2] [nM] | cAMP Primary assay EC50, n2 [2] [nM] | cAMP Primary assay EC50, Mean pM GLP-1R [3] [pM] | cAMP Primary assay EC50, n1 [3] [nM] | cAMP Primary assay EC50, n2 [3] [nM] | Primary assay EC50 (cAMP), n1 [4] [nM] | Primary assay EC50 (cAMP), n2 [4] [nM] | Primary assay EC50 (cAMP), n1 [5] [nM] | Primary assay EC50 (cAMP), n2 [5] [nM] | Primary assay EC50 (cAMP), Mean pM GLP-1R [6] [pM] | Primary assay EC50 (cAMP), n1 [6] [nM] | Primary assay EC50 (cAMP), n2 [6] [nM] | Binder
19.4 | 19.4 | 19.4 | 19.4 | 223 | 0.192 | 0.254 | – | – | – | – | – | – | – | H[Aib]EGS[αMeF]TSDVSK([PEG2′-PEG2′-γGlu-Lauroyl])YLEK([PEG2′-PEG2′-γGlu-Lauroyl])EAA[αMeK]EFIK([PEG2′-PEG2′-γGlu-Lauroyl])FVVEGG-NH2 [SEQ ID NO: 443]
– | – | – | – | – | – | – | 100 | 100 | 100 | 100 | 10100 | 11 | 9.4 | H[Aib]EGS[αMeF]T[αMeS]DVSS[αMeF]LEGEAA[αMeK]E[αMeF]IA[αMeF]VV[αMeK]GG-NH2 (N-terminus assumed; SMILES CC[C@H](C)[C@H](NC(=O)[C@](C)(Cc1ccccc1)NC(=O)[C@H](CCC(=O)O)NC(=O)[C@](C)(CCCCN)NC(=O)[C@H](C)NC(=O)[C@H](C)NC(=O)[C@H](CCC(=O)O)NC(=O)CNC(=O)[C@H](CCC(=O)O)NC(=O)[C@H](CC(C)C)NC(=O)[C@](C)(Cc1ccccc1)NC(=O)[C@H](CO)NC(=O)[C@H](CO)NC(=O)[C@@H](NC(=O)[C@H](CC(=O)O)NC(=O)[C@](C)(CO)NC(=O)[C@@H](NC(=O)[C@](C)(Cc1ccccc1)NC(=O)[C@H](CO)NC(=O)CNC(=O)[C@H](CCC(=O)O)NC(=O)C(C)(C)NC(=O)[C@@H](N)Cc1c[nH]cn1)[C@@H](C)O)C(C)C)C(=O)N[C@@H](C)C(=O)N[C@@](C)(Cc1ccccc1)C(=O)N[C@H](C(=O)N[C@H](C(=O)N[C@@](C)(CCCCN)C(=O)NCC(=O)NCC(N)=O)C(C)C)C(C)C) [SEQ ID NO 16]
19.7 | 19.7 | 19.7 | 19.7 | 144 | 0.125 | 0.162 | – | – | – | – | – | – | – | H[Aib]EGS[αMeF]TSDVSK([PEG2′-PEG2′-γGlu-Lauroyl])YLEGK([PEG2′-PEG2′-γGlu-Lauroyl])AA[αMeK]EFIK([PEG2′-PEG2′-γGlu-Lauroyl])FVVEGG-NH2 [SEQ ID NO: 444]
– | – | – | – | – | – | – | 0.16 | 0.079 | 120 | 120 | 119000 | 120 | 120 | Y[Aib]EGS[αMeF]ISD[αMeF]SIAMDKIHQQD[αMeF]VN[αMeF]LLAQK-NH2 (N-terminus assumed; SMILES CC[C@H](C)[C@H](NC(=O)[C@H](CO)NC(=O)[C@](C)(Cc1ccccc1)NC(=O)[C@H](CC(=O)O)NC(=O)[C@H](CO)NC(=O)[C@@H](NC(=O)[C@](C)(Cc1ccccc1)NC(=O)[C@H](CO)NC(=O)CNC(=O)[C@H](CCC(=O)O)NC(=O)C(C)(C)NC(=O)[C@@H](N)Cc1ccc(O)cc1)[C@@H](C)CC)C(=O)N[C@@H](C)C(=O)N[C@@H](CCSC)C(=O)N[C@@H](CC(=O)O)C(=O)N[C@@H](CCCCN)C(=O)N[C@H](C(=O)N[C@@H](Cc1c[nH]cn1)C(=O)N[C@@H](CCC(N)=O)C(=O)N[C@@H](CCC(N)=O)C(=O)N[C@@H](CC(=O)O)C(=O)N[C@@](C)(Cc1ccccc1)C(=O)N[C@H](C(=O)N[C@@H](CC(N)=O)C(=O)N[C@@](C)(Cc1ccccc1)C(=O)N[C@@H](CC(C)C)C(=O)N[C@@H](CC(C)C)C(=O)N[C@@H](C)C(=O)N[C@@H](CCC(N)=O)C(=O)N[C@@H](CCCCN)C(N)=O)C(C)C)[C@@H](C)CC) [SEQ ID NO 15]
19.7 | 19.7 | 19.7 | 19.7 | 82 | 0.0609 | 0.103 | – | – | – | – | – | – | – | H[Aib]EGS[αMeF]TSDK([PEG2′-PEG2′-γGlu-Lauroyl])SSYLEGEAA[αMeK]K([PEG2′-PEG2′-γGlu-Lauroyl])FIK([PEG2′-PEG2′-γGlu-Lauroyl])FVVEGG-NH2 [SEQ ID NO: 442]
19.7 | 19.7 | 19.7 | 19.7 | 130 | 0.0967 | 0.164 | – | – | – | – | – | – | – | H[Aib]EGS[αMeF]TSDK([PEG2′-PEG2′-γGlu-Lauroyl])SSYLEGK([PEG2′-PEG2′-γGlu-Lauroyl])AA[αMeK]EFIK([PEG2′-PEG2′-γGlu-Lauroyl])FVVEGG-NH2 [SEQ ID NO: 440]
19.5 | 19.5 | 19.5 | 19.5 | 176 | 0.11 | 0.241 | – | – | – | – | – | – | – | H[Aib]EGS[αMeF]TSDK([PEG2′-PEG2′-γGlu-Lauroyl])SSYLEGEK([PEG2′-PEG2′-γGlu-Lauroyl])A[αMeK]EFIK([PEG2′-PEG2′-γGlu-Lauroyl])FVVEGG-NH2 [SEQ ID NO: 441]
19.7 | 19.7 | 19.7 | 19.7 | 107 | 0.0873 | 0.127 | – | – | – | – | – | – | – | H[Aib]EGS[αMeF]TSDVSK([PEG2′-PEG2′-γGlu-Lauroyl])YLEGEAA[αMeK]K([PEG2′-PEG2′-γGlu-Lauroyl])FIK([PEG2′-PEG2′-γGlu-Lauroyl])FVVEGG-NH2 [SEQ ID NO: 446]
19.5 | 19.5 | 19.5 | 19.5 | 260 | 0.242 | 0.277 | – | – | – | – | – | – | – | H[Aib]EGS[αMeF]TSDVSK([PEG2′-PEG2′-γGlu-Lauroyl])YLEGEK([PEG2′-PEG2′-γGlu-Lauroyl])A[αMeK]EFIK([PEG2′-PEG2′-γGlu-Lauroyl])FVVEGG-NH2 [SEQ ID NO: 445]
19.5 | 19.5 | 19.5 | 19.5 | 97 | 0.0599 | 0.134 | – | – | – | – | – | – | – | H[Aib]EGS[αMeF]TSDK([PEG2′-PEG2′-γGlu-Lauroyl])SSYLEK([PEG2′-PEG2′-γGlu-Lauroyl])EAA[αMeK]EFIK([PEG2′-PEG2′-γGlu-Lauroyl])FVVEGG-NH2 [SEQ ID NO: 439]
